Numbering of substitutions follows the chain as printed. Names and notes keep the numbering of the source.
B1: 21B6 (antibody, V domains shown)
VH: EVRLVESGGGLVQPGGSLRLSCAASGFTFSDYYISWVRQAPGRGPEWVGFIRNVLYRGTTEYAPSVKGRFIISRDDSRAIASLQMNGLKADDTAVYYCALGASGTDRDWFDVWGPGVLVTVSS
VL: DIQMTQSPSSLSASVGDTVTITCRASQDISNSLAWYQQKPGKAPKALIYYASNLESGVPSRFSGSGSGTDFTLTISSLQPEDFATYYCQQHNNYPFTFGPGTKVDIK
B2: 25F9 (antibody, V domains shown)
VH: EVQLVESGGGLVQPGGSLRLSCSASGFRFSDYWINWVRQAPGKGLEWVGFIKTKADFGTPAYAESVKGRFSISRDDSKNTVYLQMNSLKTEDTAVYYCTRDRGILEWLIIEAGWFDVWGPGVLVTVSS
VL: QSVLTQPPSASGAPGQRVTISCTGSSSNIGAGHYVSWYQQLPGTAPKLLIHENDKRPSGVSDRFSGSRSGASASLTITGLQSGDEADYYCSVWDRSLNTLFGGGTRVTVL
B3: 20A7 (antibody, V domains shown)
VH: DVQLVESGGGLVKPGGSLRLSCVASGFTFSNSEMHWVRQAPGKGLEWVSVISESGETTHYADSVKGRFTISRDNANNLLLLQMNSLRADDTAVYYCTRYNWNNRVYALDSWGQGVVVTVSS
VL: EIVLTQSPATLSLSPGEGASLSCRASQTVIGSLAWYQQKPGQAPRLLIYGASSRATGIPDRFSGSGSGTDFTLTISSLEPEDFAVYYCQQYGNWPLTFGPGTRLDIR
B4: 20A7-VH E33V (antibody, V domains shown)
VH: B3 VH with E33V
VL: B3 VL

Experiments:
[1] = biological target: SARS-CoV-2 Beta variant RBD (SARS-CoV-2, Beta (B.1.351), strain); experiment: BLI
[2] = biological target: T1, SARS-CoV-2 receptor binding domain (RBD), wild type (SARS-CoV-2, wild type (Wuhan), UniProt P0DTC2); experiment: BLI
[3] = biological target: SARS-CoV-2 Delta variant RBD (SARS-CoV-2, Delta (B.1.617.2), strain); experiment: BLI
[4] = biological target: T2, SARS-CoV-2 Omicron BA.1 RBD (SARS-CoV-2, Omicron BA.1, strain); experiment: BLI
[5] = biological target: T2, SARS-CoV-2 Omicron BA.1 RBD; experiment: cell-based or functional assay
[6] = biological target: T1, SARS-CoV-2 receptor binding domain …; experiment: cell-based or functional assay

| Binder | Kd [1] | Kd [2] | Kd [3] | Kd [4] | IC50 of neutralization of authentic SARS-CoV-2 BA.1 [5] | IC50 of neutralization of authentic SARS-CoV-2 D614G [6] | fold reduction of binding against 20A7 [2] |
| --- | --- | --- | --- | --- | --- | --- | --- |
| B1 | < 0.666 pM | < 0.666 pM | < 0.666 pM | < 0.666 pM | 11 ng/mL |  |  |
| B2 | < 0.666 pM | < 0.666 pM | < 0.666 pM | < 0.666 pM | 42 ng/mL | 6 ng/mL |  |
| B3 | < 0.666 pM | < 0.666 pM | < 0.666 pM | < 0.666 pM | 6 ng/mL |  |  |
| B4 |  |  |  |  |  |  | ~300 fold |

From paper doi:10.1101/2023.01.19.524784 (bioRxiv, 2023)
